The test system of the series is Escherichia coli TOP10. The series can be described thus: shrunken log2 fold change of peptide-encoding DNA abundance (4.5 h post-induction vs induction); higher = less antimicrobial activity (less host growth inhibition). The settings on record: time post-induction: 4.5 h; library: site-saturation at positions 5, 18, 19, 20.
For RRIRMRPPRLPRPRPRPQLWPRP, the “shrunken log2 fold change” value was found to be 0.998.

Consider RRIRHRPPRLPRPRPRPGATPRP, for which the “shrunken log2 fold change” value came to 0.0387.

With RRIRGRPPRLPRPRPRPMNVPRP, the “shrunken log2 fold change” value is -0.176.

Regarding RRIRMRPPRLPRPRPRPAFVPRP, the “shrunken log2 fold change” value is 0.233.

RRIRCRPPRLPRPRPRPMRFPRP: the “shrunken log2 fold change” value is 0.249.

Take RRIRCRPPRLPRPRPRPTFYPRP: the “shrunken log2 fold change” value was -0.237.

Take RRIRTRPPRLPRPRPRPFRKPRP: the “shrunken log2 fold change” value is -0.0396.

With RRIRKRPPRLPRPRPRPKPTPRP, the “shrunken log2 fold change” value came to 0.7.

As for RRIRGRPPRLPRPRPRPQMHPRP, the “shrunken log2 fold change” value amounted to 0.989.

Regarding RRIRWRPPRLPRPRPRPSWRPRP, the “shrunken log2 fold change” value turned out to be 0.0809.

As for RRIRGRPPRLPRPRPRPIGDPRP, the “shrunken log2 fold change” value turned out to be 0.667.

RRIRWRPPRLPRPRPRPKKCPRP: the “shrunken log2 fold change” value was 0.18.

As for RRIRERPPRLPRPRPRPDSTPRP, the “shrunken log2 fold change” value was -0.0931.

As to RRIRVRPPRLPRPRPRPKDQPRP, the “shrunken log2 fold change” value came out at 0.0584.

For RRIRWRPPRLPRPRPRPFMTPRP, the “shrunken log2 fold change” value stood at 0.183.

For RRIRKRPPRLPRPRPRPPARPRP, the “shrunken log2 fold change” value was found to be 1.16.

RRIRHRPPRLPRPRPRPNYSPRP: the “shrunken log2 fold change” value was -0.915.

For the sequence RRIRCRPPRLPRPRPRPFAWPRP, the “shrunken log2 fold change” value is 0.0983.

On to RRIRQRPPRLPRPRPRPYYKPRP, for which the “shrunken log2 fold change” value is -0.962.

For the sequence RRIRFRPPRLPRPRPRPCMPPRP, the “shrunken log2 fold change” value was -0.35.

Turning to RRIRIRPPRLPRPRPRPTSGPRP, the “shrunken log2 fold change” value was -0.00782.

In the case of RRIRDRPPRLPRPRPRPHRGPRP, the “shrunken log2 fold change” value is -0.0201.

Consider RRIRTRPPRLPRPRPRPGTWPRP, for which the “shrunken log2 fold change” value was -0.0246.

Consider RRIRSRPPRLPRPRPRPHDRPRP, for which the “shrunken log2 fold change” value was -0.138.

Turning to RRIRNRPPRLPRPRPRPCVGPRP, the “shrunken log2 fold change” value was -0.129.

Consider RRIRARPPRLPRPRPRPHVSPRP, for which the “shrunken log2 fold change” value was 0.0459.

For the sequence RRIRFRPPRLPRPRPRPERCPRP, the “shrunken log2 fold change” value turned out to be 0.104.

In the case of RRIRNRPPRLPRPRPRPRPWPRP, the “shrunken log2 fold change” value came to 0.116.

For RRIRKRPPRLPRPRPRPEDFPRP, the “shrunken log2 fold change” value stood at 0.24.

RRIRSRPPRLPRPRPRPCTMPRP: the “shrunken log2 fold change” value was -0.154.

RRIRQRPPRLPRPRPRPGLRPRP: the “shrunken log2 fold change” value worked out at 0.285.

Take RRIRARPPRLPRPRPRPETYPRP: the “shrunken log2 fold change” value was 0.0388.

With RRIRMRPPRLPRPRPRPIQNPRP, the “shrunken log2 fold change” value was -0.157.

As for RRIRDRPPRLPRPRPRPLLWPRP, the “shrunken log2 fold change” value amounted to 0.754.

RRIRDRPPRLPRPRPRPDIAPRP: the “shrunken log2 fold change” value is 0.209.

As to RRIRIRPPRLPRPRPRPRFCPRP, the “shrunken log2 fold change” value is -0.00189.

Turning to RRIRMRPPRLPRPRPRPITMPRP, the “shrunken log2 fold change” value came out at 0.0833.

RRIRGRPPRLPRPRPRPCIRPRP: the “shrunken log2 fold change” value stood at 0.174.

Regarding RRIRNRPPRLPRPRPRPSSKPRP, the “shrunken log2 fold change” value is -0.244.

Take RRIRARPPRLPRPRPRPVETPRP: the “shrunken log2 fold change” value amounted to 0.759.

RRIRIRPPRLPRPRPRPFIHPRP: the “shrunken log2 fold change” value is -0.872.

With RRIRQRPPRLPRPRPRPGFHPRP, the “shrunken log2 fold change” value came out at 0.00101.

With RRIRARPPRLPRPRPRPPPMPRP, the “shrunken log2 fold change” value was 1.1.

With RRIRIRPPRLPRPRPRPRRFPRP, the “shrunken log2 fold change” value was -0.00443.

In the case of RRIRVRPPRLPRPRPRPMQQPRP, the “shrunken log2 fold change” value was 0.108.

As for RRIRKRPPRLPRPRPRPAFDPRP, the “shrunken log2 fold change” value was found to be 0.451.

For the sequence RRIRSRPPRLPRPRPRPKYIPRP, the “shrunken log2 fold change” value was -0.383.

Consider RRIRARPPRLPRPRPRPGGVPRP, for which the “shrunken log2 fold change” value is 0.626.

In the case of RRIRFRPPRLPRPRPRPFKYPRP, the “shrunken log2 fold change” value was -1.26.

Turning to RRIRRRPPRLPRPRPRPGEAPRP, the “shrunken log2 fold change” value was determined as 0.752.

Regarding RRIRKRPPRLPRPRPRPIQKPRP, the “shrunken log2 fold change” value was 0.0671.

With RRIRERPPRLPRPRPRPDVHPRP, the “shrunken log2 fold change” value was -0.435.

Regarding RRIRNRPPRLPRPRPRPSDLPRP, the “shrunken log2 fold change” value was -0.256.

In the case of RRIRFRPPRLPRPRPRPGTMPRP, the “shrunken log2 fold change” value is -0.494.

Take RRIRYRPPRLPRPRPRPEVFPRP: the “shrunken log2 fold change” value was -0.0536.

As for RRIRCRPPRLPRPRPRPGQSPRP, the “shrunken log2 fold change” value came out at 0.0538.

On to RRIRQRPPRLPRPRPRPTVRPRP, for which the “shrunken log2 fold change” value was 0.0397.

In the case of RRIRWRPPRLPRPRPRPDFVPRP, the “shrunken log2 fold change” value is 0.0377.

Consider RRIRSRPPRLPRPRPRPNAKPRP, for which the “shrunken log2 fold change” value is 0.00752.

As for RRIRERPPRLPRPRPRPVRVPRP, the “shrunken log2 fold change” value is 0.247.

Turning to RRIRTRPPRLPRPRPRPYHKPRP, the “shrunken log2 fold change” value is -0.426.

On to RRIRVRPPRLPRPRPRPEYTPRP, for which the “shrunken log2 fold change” value was -0.0361.

Take RRIRPRPPRLPRPRPRPDCAPRP: the “shrunken log2 fold change” value was found to be 0.354.

Take RRIRLRPPRLPRPRPRPMIWPRP: the “shrunken log2 fold change” value was -0.0275.

RRIRIRPPRLPRPRPRPMTVPRP: the “shrunken log2 fold change” value is 0.0104.

For RRIRCRPPRLPRPRPRPQLSPRP, the “shrunken log2 fold change” value was 0.122.

As to RRIRNRPPRLPRPRPRPSSVPRP, the “shrunken log2 fold change” value amounted to 0.066.

For the sequence RRIRVRPPRLPRPRPRPNTEPRP, the “shrunken log2 fold change” value was -0.665.

With RRIRQRPPRLPRPRPRPSATPRP, the “shrunken log2 fold change” value amounted to 0.0854.

For RRIRWRPPRLPRPRPRPPSEPRP, the “shrunken log2 fold change” value turned out to be 0.456.

Turning to RRIRVRPPRLPRPRPRPKMMPRP, the “shrunken log2 fold change” value was -0.313.

In the case of RRIRCRPPRLPRPRPRPICAPRP, the “shrunken log2 fold change” value was 0.107.

On to RRIRGRPPRLPRPRPRPTWWPRP, for which the “shrunken log2 fold change” value stood at 0.906.

RRIRYRPPRLPRPRPRPACTPRP: the “shrunken log2 fold change” value is -0.292.

Consider RRIRKRPPRLPRPRPRPGDCPRP, for which the “shrunken log2 fold change” value was determined as 0.106.

RRIRGRPPRLPRPRPRPQPKPRP: the “shrunken log2 fold change” value amounted to 0.884.

As to RRIRVRPPRLPRPRPRPTILPRP, the “shrunken log2 fold change” value is -0.308.

As for RRIRMRPPRLPRPRPRPGNKPRP, the “shrunken log2 fold change” value was -0.0821.

For the sequence RRIRRRPPRLPRPRPRPDKRPRP, the “shrunken log2 fold change” value is -0.0396.

With RRIRGRPPRLPRPRPRPMVAPRP, the “shrunken log2 fold change” value came to 1.17.

As to RRIRDRPPRLPRPRPRPFCVPRP, the “shrunken log2 fold change” value turned out to be 0.483.

As to RRIRGRPPRLPRPRPRPNWMPRP, the “shrunken log2 fold change” value was -0.194.

Take RRIRKRPPRLPRPRPRPFNNPRP: the “shrunken log2 fold change” value was -0.0235.

As for RRIRYRPPRLPRPRPRPVCCPRP, the “shrunken log2 fold change” value is -0.644.

As to RRIRKRPPRLPRPRPRPFCWPRP, the “shrunken log2 fold change” value was 0.48.

Regarding RRIRMRPPRLPRPRPRPRGSPRP, the “shrunken log2 fold change” value came out at 0.631.

Take RRIRYRPPRLPRPRPRPRHSPRP: the “shrunken log2 fold change” value was -0.127.

Consider RRIRDRPPRLPRPRPRPDTIPRP, for which the “shrunken log2 fold change” value was -0.0164.

Regarding RRIRWRPPRLPRPRPRPTCYPRP, the “shrunken log2 fold change” value was -0.0755.

On to RRIRARPPRLPRPRPRPGTLPRP, for which the “shrunken log2 fold change” value came out at 0.22.

In the case of RRIRVRPPRLPRPRPRPETVPRP, the “shrunken log2 fold change” value was -0.103.

For RRIRFRPPRLPRPRPRPDDKPRP, the “shrunken log2 fold change” value is -0.059.

Consider RRIRRRPPRLPRPRPRPQTRPRP, for which the “shrunken log2 fold change” value was 0.511.

Turning to RRIRSRPPRLPRPRPRPSECPRP, the “shrunken log2 fold change” value is -0.211.

As to RRIRRRPPRLPRPRPRPVQAPRP, the “shrunken log2 fold change” value amounted to 0.464.

RRIRERPPRLPRPRPRPFHGPRP: the “shrunken log2 fold change” value was -0.0459.

For the sequence RRIRPRPPRLPRPRPRPCDPPRP, the “shrunken log2 fold change” value is -0.575.

As to RRIRTRPPRLPRPRPRPPDRPRP, the “shrunken log2 fold change” value is 0.257.

Take RRIRDRPPRLPRPRPRPCISPRP: the “shrunken log2 fold change” value was determined as 0.0261.

For the sequence RRIRPRPPRLPRPRPRPKNWPRP, the “shrunken log2 fold change” value worked out at 0.261.

On to RRIRARPPRLPRPRPRPFNHPRP, for which the “shrunken log2 fold change” value was -0.436.

As to RRIRFRPPRLPRPRPRPQHIPRP, the “shrunken log2 fold change” value is -0.51.

As to RRIRGRPPRLPRPRPRPFFHPRP, the “shrunken log2 fold change” value is -0.0568.

As for RRIRYRPPRLPRPRPRPASRPRP, the “shrunken log2 fold change” value is -0.0366.

RRIRCRPPRLPRPRPRPMKQPRP: the “shrunken log2 fold change” value was -0.436.

For the sequence RRIRDRPPRLPRPRPRPFKDPRP, the “shrunken log2 fold change” value was -0.00443.

As to RRIRCRPPRLPRPRPRPCSHPRP, the “shrunken log2 fold change” value is -1.29.

Turning to RRIRIRPPRLPRPRPRPKTRPRP, the “shrunken log2 fold change” value was -0.117.

In the case of RRIRGRPPRLPRPRPRPPLNPRP, the “shrunken log2 fold change” value came out at 0.789.

Turning to RRIRSRPPRLPRPRPRPQCYPRP, the “shrunken log2 fold change” value is -0.569.

Consider RRIRTRPPRLPRPRPRPPLHPRP, for which the “shrunken log2 fold change” value came to 0.0532.

On to RRIRMRPPRLPRPRPRPAKDPRP, for which the “shrunken log2 fold change” value was determined as 0.042.

As for RRIRSRPPRLPRPRPRPRCLPRP, the “shrunken log2 fold change” value turned out to be 0.0297.

Consider RRIRRRPPRLPRPRPRPKDMPRP, for which the “shrunken log2 fold change” value was -0.0599.

RRIRCRPPRLPRPRPRPVLIPRP: the “shrunken log2 fold change” value is -0.414.

On to RRIRWRPPRLPRPRPRPQDYPRP, for which the “shrunken log2 fold change” value is -0.406.

On to RRIRWRPPRLPRPRPRPTLAPRP, for which the “shrunken log2 fold change” value is 0.754.

On to RRIRIRPPRLPRPRPRPWVFPRP, for which the “shrunken log2 fold change” value is -0.397.

For the sequence RRIRMRPPRLPRPRPRPHLSPRP, the “shrunken log2 fold change” value is -0.0805.

Turning to RRIRYRPPRLPRPRPRPRHMPRP, the “shrunken log2 fold change” value was -0.55.

Consider RRIRPRPPRLPRPRPRPPVQPRP, for which the “shrunken log2 fold change” value came out at 0.341.

Consider RRIRSRPPRLPRPRPRPIGGPRP, for which the “shrunken log2 fold change” value was -0.0412.

Consider RRIRIRPPRLPRPRPRPRDHPRP, for which the “shrunken log2 fold change” value was -0.0591.

Consider RRIRFRPPRLPRPRPRPKSNPRP, for which the “shrunken log2 fold change” value was -0.358.

For RRIRFRPPRLPRPRPRPKHPPRP, the “shrunken log2 fold change” value was found to be 0.194.

The values above are taken from the supplement of paper PMC9112550, “Optimization of the antimicrobial peptide Bac7 by deep mutational scanning” (BMC Biology, 2022).
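Further: peptides expressed intracellularly from a pBAD plasmid library in pooled LB shake-flask culture, induced with 0.3% L-arabinose, DNA abundance read by NGS, three biological replicates, DESeq2 with apeglm shrinkage.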
